B1: Sulfolobus acidocaldarius Mre11 (enzyme, UniProt Q8NKQ0 1-382, looked up)
chain: MQLLHISDTHLGKRQYNLESREKDVYDTFTQLIDIAINEHVKAVIHTGDLFDVNNPPNRAKLHAIKELKRLKDHNIPFICIAGDHDSPKRKEEIYPQRILEEFNLIKILQKIDNRVKLENVEVYGISHISNVSVNDLKEQLSKVKPETRKSILMLHQGIRTYLPYQGAWQIELSDLPKGFSLYAVGHLHSRRKDYLDGGALIEIAGSPDIMREEEIEDYQKSKKGATLIDMSGDLPSINYINVNIRDQLVLDINVDKIEQSIESVIQKLKENVKNDKKPILHIELEGTVPIRKDVLMTKLQALRDYVEHYRIYKNNIVSIKEENLKTKLKTTYSSLNDIIADYLKGIGYTDEETKIIIDIINEEDEKKVEELLKKFAGVEDK
B2: Sulfolobus acidocaldarius Rad50 (enzyme, UniProt O33600 1-886, looked up)
chain: MIIREIRLQNFLSHEDTTVKFEGSINVIIGNNGAGKSSIIDGILFGLFKRTNRDIGKNEELIKKGKKSGQVSIKFEINGDTYLIDRNVGETSRDTISLLKEGKIITLARQSTTVNNKIKEILGFDHKILMSTTIIGQGSVESVFSDFPEVMKELLKINKLEMLRESNGPIHSLIKVLTDRIRSLQSIKDILKREEAEIDRLKKEIEEIKVKLENIEREAKEKEDELNQYNTEFNRIKEIKVQYDILSGELSVVNKKIEEIALRLKDFEEKEKRYNKIETEVKELDENREKINTISSFKSILVQIDSLKSQINVVENDLKRKKEKLKRKKELEEKEKQYEEIEKRKKELEEKEKQYEEIEKRLTYVLKNIERQKNEIEKLNYVDTQDLENKIKDVSDRINQIDNELKGLLDRRGDLNGRKEQTLKIYNNLNSIEDDRCPICGRPLDSEHKAKIREEIKVQLLELNKQITALQARINSLIKEREELEATRNKLQLELQKRSKEKGIYEAKLKELQRLEEEKNKLQNEILSLLSYHQEFENIAEKEKELIDYHEEYLKNSDILEEDIQEQEQRLNELNSKLSELEKSYNDYKAKYQFLPADLKSLVSLEERIRRRISELEKLKIEYERLKEEITRMKGLKEEYEKLKEEEDALLNRISELGYSEKRYKQLEEIIDKLSKILSGIEADKGKIKGSLEEKIKNIEEKERNIEELRNKMNEESKLNLGISKLQKLREVLDNKHLQSHIMNIVRNQIENNVNEVIAKFDLSFSAVEIDFVGKSELYVYTASGQKIHINALSGGERISIALALRLAIAKALMNQFSTLILDEPTVNLDEYRRKELIDVIRSAIEIVPQIILVTHDQELIQAGDYIIRVEKKGDTSKVEVSSYDR

Columns and labels:
[1] = molecular target: B2; experiment: atomic force microscopy
[2] = molecular target: the molecule itself; experiment: atomic force microscopy

## B1
[1]
  binding result: binds

## B2
[2]
  binding result: binds

Source: publication PMC7334584 (Proceedings of the National Academy of Sciences of the …, 2020)
